Test results published in patent US20060204974A1.

Biological target: rat angiotensin type 1a receptor (AT1aR) (rat) (UniProt P25095)
Assay: cell-based or functional assay

UniProt P25095, sequence (P25095 whole entry): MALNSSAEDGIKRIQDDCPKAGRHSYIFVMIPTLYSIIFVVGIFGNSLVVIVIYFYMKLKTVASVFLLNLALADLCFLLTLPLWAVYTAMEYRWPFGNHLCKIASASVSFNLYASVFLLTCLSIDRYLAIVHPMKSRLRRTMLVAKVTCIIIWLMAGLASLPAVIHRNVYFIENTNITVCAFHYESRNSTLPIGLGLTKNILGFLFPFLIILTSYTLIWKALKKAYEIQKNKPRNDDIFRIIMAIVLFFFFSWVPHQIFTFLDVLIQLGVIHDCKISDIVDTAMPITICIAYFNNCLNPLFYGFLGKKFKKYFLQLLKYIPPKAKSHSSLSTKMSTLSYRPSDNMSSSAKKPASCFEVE

Angiotensin II (from UniProt P01019 25-476) (peptide)
Ang II (100 nM) stimulated inositol phosphate production, Ang II-basal (cpm), CHO cells stably expressing E1,2,3: 260 cpm | Ang II (100 nM) stimulated inositol phosphate production, Ang II-basal (cpm), CHO cells stably expressing E1,3: 1320 cpm | Ang II-induced IP production (cpm), 100 nM Ang II, CHO clones stably expressing QM: 1640 cpm | Ang II-induced IP production (cpm), 100 nM Ang II, CHO clones stably expressing WT: 322 cpm | angiotensin II/basal inositol phosphate accumulation, 100 nM angiotensin II for 20 min, A10 cells transiently transfected with E2 plasmid (ratio (angiotensin II/basal)): 1.35 | angiotensin II/basal inositol phosphate accumulation, 100 nM angiotensin II for 20 min, A10 cells transiently transfected with ΔE2 plasmid (ratio (angiotensin II/basal)): 1.8
